Patent US20210061911A1 (MacroGenics, published 2021)

How the values were obtained:
Cynomolgus CD123-His = target: T1, Cynomolgus CD123-His (cynomolgus monkey); assay: kinetic binding analysis, method not given
T1 construct: also called cynomolgus monkey CD123

Human CD123-His = target: T2, Human CD123-His (human, UniProt P26951 19-305); assay: kinetic binding analysis, method not given
T2 construct: also called interleukin 3 receptor alpha; IL-3Rα; not shown: His tag
T2 sequence (looked up): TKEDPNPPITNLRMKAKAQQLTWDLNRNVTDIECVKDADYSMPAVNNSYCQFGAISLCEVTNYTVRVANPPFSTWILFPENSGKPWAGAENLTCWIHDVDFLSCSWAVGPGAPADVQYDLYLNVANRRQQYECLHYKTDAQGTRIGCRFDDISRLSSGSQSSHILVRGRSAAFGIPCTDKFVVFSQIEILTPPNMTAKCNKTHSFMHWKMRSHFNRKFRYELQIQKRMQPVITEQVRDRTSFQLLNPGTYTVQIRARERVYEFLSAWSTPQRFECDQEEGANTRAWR

B1: DART-A, sequence-optimized CD123×CD3 bi-specific monovalent diabody (bispecific antibody)
chain 1: QAVVTQEPSLTVSPGGTVTLTCRSSTGAVTTSNYANWVQQKPGQAPRGLIGGTNKRAPWTPARFSGSLLGGKAALTITGAQAEDEADYYCALWYSNLWVFGGGTKLTVLGGGGSGGGGEVQLVQSGAELKKPGASVKVSCKASGYTFTDYYMKWVRQAPGQGLEWIGDIIPSNGATFYNQKFKGRVTITVDKSTSTAYMELSSLRSEDTAVYYCARSHLLRASWFAYWGQGTLVTVSSGGCGGGEVAALEKEVAALEKEVAALEKEVAALEK
chain 2: DFVMTQSPDSLAVSLGERVTMSCKSSQSLLNSGNQKNYLTWYQQKPGQPPKLLIYWASTRESGVPDRFSGSGSGTDFTLTISSLQAEDVAVYYCQNDYSYPYTFGQGTKLEIKGGGSGGGGEVQLVESGGGLVQPGGSLRLSCAASGFTFSTYAMNWVRQAPGKGLEWVGRIRSKYNNYATYYADSVKDRFTISRDDSKNSLYLQMNSLKTEDTAVYYCVRHGNFGNSYVSWFAYWGQGTLVTVSSGGCGGGKVAALKEKVAALKEKVAALKEKVAALKE
notes: no Fc; also called CD123×CD3 DART molecule
Q: B1 was tested. Which kon (Cynomolgus CD123-His) did it give?
A: The kon was 150000 M⁻¹ s⁻¹.

Q: What about the kon (Human CD123-His) of the same binder?
A: Its kon is 160000 M⁻¹ s⁻¹.
